T1: human FIGNL1ΔN (fidgetin-like 1 in which the N-terminal 284 aa were deleted) (human, UniProt Q6PIW4 285-674)
T1 sequence: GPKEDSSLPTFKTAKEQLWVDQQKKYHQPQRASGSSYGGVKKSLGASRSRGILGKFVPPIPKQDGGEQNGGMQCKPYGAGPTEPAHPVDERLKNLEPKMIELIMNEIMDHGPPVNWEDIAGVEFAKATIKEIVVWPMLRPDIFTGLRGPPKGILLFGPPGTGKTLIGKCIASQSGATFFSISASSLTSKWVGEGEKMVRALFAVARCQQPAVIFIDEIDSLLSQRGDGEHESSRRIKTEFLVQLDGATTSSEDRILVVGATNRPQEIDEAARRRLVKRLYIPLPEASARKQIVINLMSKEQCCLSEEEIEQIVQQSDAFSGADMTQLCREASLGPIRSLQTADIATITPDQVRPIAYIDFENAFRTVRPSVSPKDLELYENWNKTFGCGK


Target: T1, human FIGNL1ΔN (fidgetin-like 1 in …)
Assay: native gel or EMSA

Binder	binding result
human RAD51 (natural protein) MAMQMQLEANADTSVEEESFGPQPISRLEQCGINANDVKKLEEAGFHTVEAVAYAPKKELINIKGISEAKADKILAEAAKLVPMGFTTATEFHQRRSEIIQITTGSKELDKLLQGGIETGSITEMFGEFRTGKTQICHTLAVTCQLPIDRGGGEGKAMYIDTEGTFRPERLLAVAERYGLSGSDVLDNVAYARAFNTDHQTQLLYQASAMMVESRYALLIVDSATALYRTDYSGRGELSARQMHLARFLRMLLRLADEFGVAVVITNQVVAQVDGAAMFAADPKKPIGGNIIAHASTTRLYLRKGRGETRICKIYDSPCLPEAEAMFAINADGVGDAKD	binds
human DMC1 (natural protein) MKEDQVVAEEPGFQDEEESLFQDIDLLQKHGINVADIKKLKSVGICTIKGIQMTTRRALCNVKGLSEAKVDKIKEAANKLIEPGFLTAFEYSEKRKMVFHITTGSQEFDKLLGGGIESMAITEAFGEFRTGKTQLSHTLCVTAQLPGAGGYPGGKIIFIDTENTFRPDRLRDIADRFNVDHDAVLDNVLYARAYTSEHQMELLDYVAAKFHEEAGIFKLLIIDSIMALFRVDFSGRGELAERQQKLAQMLSRLQKISEEYNVAVFVTNQMTADPGATMTFQADPKKPIGGHILAHASTTRISLRKGRGELRIAKIYDSPEMPENEATFAITAGGIGDAKE	binds
